Consider 9 molecules from US20260176336A1 (MESTAG THERAPEUTICS, published 2026).

Assay [1] deals with T1, human FAP expressed on cells (transfected HEK293; FAP-CHO-K1 recombinant cell line, BPS cat no. 79947) (human, UniProt Q12884 1-760).
T1 construct: also called HuFAP-HEK293; Hek-FAP
Briefly: flow cytometry, human FAP-transfected HEK293 cells. The procedure: The binding of antibodies to human FAP expressed on transfected HEK293 cells was measured by FACS. In addition, binding to parental HEK293 was tested to confirm antibody specificity. In short, the cells were resuspended in the FACS binding buffer and live/dead efluro450 viability dye was added at a 1:1000 dilution to the cell suspension, followed by incubation at room temperature in the dark for 30 minutes. The cells were then diluted to 2 e5/ml, and 100 ul was added to wells of a 96-well U-bottom plate as required. […] The cells were pelleted by centrifugation, and the supernatant was discarded, followed by the addition of a series of dilutions of anti-FAP antibodies and incubation for 45 minutes at 4° C. in the dark. Cells were washed two times with PBS with 3% (w/v) BSA before adding 60 ul of fluorescently labelled secondary antibody (goat anti-human IgG) diluted to 1:200 in PBS. Incubation continued at 4 C for at least 30 minutes, followed by two washes in PBS pH 7.4. Cells were either fixed with 2% PFA (30 minutes at 4° C.) followed by washout and storage in 100 ul of PBS or immediately analysed on a Flow Cytometer. The data was analysed using FloJo V10 and GraphPad Prism. No binding to the HEK parental cell line was detected for any tested clones, confirming the specific interaction between anti-FAP antibodies and the FAP receptor. The results are summarised in.
Background: Flow cytometry measures light scatter and fluorescence of single cells or particles in a stream.

Assay [2] has as its target Human FAP (Acro), recombinant protein (human, UniProt Q12884 26-760). Briefly: SPR (Carterra LSA), antibody captured by anti-human Fc, FAP as analyte. The procedure: (§1) Binding of anti-FAP antibodies to human and cynomolgus FAP was investigated by Surface Plasmon Resonance (SPR) on Carterra LSA. An EC30M chip was used to capture the test antibodies. The chip was activated for bioconjugation using EDC and sNHS in MES pH 5.5 to prepare the chip for amine coupling. Goat anti-human IgG Fc antibody was then captured to the chip via incubation for 10 minutes. Excess conjugation sites were quenched with 1M Ethanolamine pH 8. To measure monovalent binding kinetics, antibodies were printed/spotted onto the chip and allowed to bind to the goat antibody, followed by subsequent washing. After the preparation, the printed chip was exposed to repeated rounds of association and dissociation with increasing analyte concentrations. In this work, recombinant proteins (Human FAP (Acro) or cyno FAP His (Acro)) were serially diluted across a range starting at 1500 nM with 3-fold dilutions and 10 points. The curves were fitted to global fit in a 1:1 binding model to obtain KD values. The binding affinity to both human and cynomolgus FAP is reported in.

Assay [3] addresses T2, cyno FAP His (Acro), recombinant protein (cynomolgus (Macaca fascicularis), UniProt Q12884 26-760 (human entry)).
T2 construct: bought protein used as analyte on Carterra LSA
Described as above. The protocol:
as §1

The target of assay [4] is T3, human LTBR endogenously expressed on cells (HepG2, A549, A375, HCC1187, RPMI-7951, primary human breast CAFs) (human, UniProt P36941 31-435).
T3 construct: also called lymphotoxin beta receptor; TNFRSF3
Briefly: flow cytometry, HepG2 cells, VHH detected by anti-FLAG. The protocol:
The purified proteins were tested for binding to endogenously expressed human LTBR in HepG2 cells. The expression level was confirmed with anti-LTBR clone CBE-11 (“huCBE11” as disclosed in WO2004002431). The HepG2 cells were resuspended to a final concentration of 1.0×10⁶ cells/ml in FACS buffer. A series dilution of purified VHHs was incubated with mouse anti-FLAG biotinylated antibody (Sigma Aldrich, cat. #F9291-1MG) at 5 μg/ml in FACS buffer for 30 min at RT with shaking. Cell suspensions were distributed into a 96-well v-bottom plate and incubated with the above-described VHH/antibody mixture for 1 hour on ice while shaking. VHH binding to cells was detected with streptavidin R-PE (Invitrogen, cat. #.SA10044) at 1:400 dilution (0.18 μg/ml) in FACS buffer, incubated for 30 minutes on ice with shaking and protection from light. The cells were acquired by flow cytometry. The data was analysed using FloJo V10 and GraphPad Prism. The EC50 values can be found in.

For assay [5], the target named is T4, human recombinant LTBR fused on human Fc (SinoBiological, cat. #10581-H02H) (human, UniProt P36941 31-227).
T4 construct: bought protein; also called human LTBR human IgG1 Fc chimera protein; not shown: human IgG1 Fc
Briefly: SPR (Biacore T200), LTBR-Fc on CM5 chip, periplasmic extract as analyte. The protocol:
(§2) To confirm species cross-reactivity, either human or cynomolgus recombinant LTBR-fused on human Fc (SinoBiological, cat. #10581-H02H and 90101-C02H) were immobilised on CM5 sensor chips (cat. #CFJB 334). 1:5 dilutions of crude periplasmic extracts of clones expressing VHHs were injected at 30 μl/min for 2 min in HBS-EP pH 7.4 buffer to allow for binding to chip-bound antigen. Next, an HBS-EP pH7.4 buffer without VHHs was injected for 5 minutes at the same flow rate to enable spontaneous dissociation of bound VHHs. Surface regeneration was done with 10 ul of 1 mM Glycine pH 1.5/1 M NaCl injected twice between samples. From the sensorgrams obtained on a BiacoreT200 machine, koff values were calculated by fitting a 1:1 interaction model (Langmuir model) using Insight Evaluation Software (Biacore). Based on this analysis, four clones were selected for further evaluation, and the results are included in.
(In SPR one partner is held on a chip, and binding of the other changes the refractive index at the surface.)

Assay [6] deals with T5, cynomolgus recombinant LTBR fused on human Fc (SinoBiological, cat. #90101-C02H) (cynomolgus (Macaca fascicularis), UniProt P36941 31-227 (human entry)).
T5 construct: bought protein
The assay is described as above. The procedure:
as §2

The target of assay [7] is T6, mouse LTBR on cells (4T1 tumor cell line; primary mouse lung fibroblasts) (mouse, UniProt P50284 31-415). Briefly: cell-based or functional assay.
Assay [8] concerns the target T6, mouse LTBR on cells (4T1 tumor cell …). Briefly: cell-based or functional assay. This is another data set of the same source.

T5 sequence (P36941 other isoform, or with tags, fused parts or gaps C02H C02H limits assumed): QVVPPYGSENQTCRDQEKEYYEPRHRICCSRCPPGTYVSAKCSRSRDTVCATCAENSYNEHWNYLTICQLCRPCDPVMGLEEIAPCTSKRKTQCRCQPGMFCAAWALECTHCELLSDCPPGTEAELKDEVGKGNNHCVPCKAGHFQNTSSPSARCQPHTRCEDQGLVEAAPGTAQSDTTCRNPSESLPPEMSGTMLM
T6 sequence (P50284 31-415): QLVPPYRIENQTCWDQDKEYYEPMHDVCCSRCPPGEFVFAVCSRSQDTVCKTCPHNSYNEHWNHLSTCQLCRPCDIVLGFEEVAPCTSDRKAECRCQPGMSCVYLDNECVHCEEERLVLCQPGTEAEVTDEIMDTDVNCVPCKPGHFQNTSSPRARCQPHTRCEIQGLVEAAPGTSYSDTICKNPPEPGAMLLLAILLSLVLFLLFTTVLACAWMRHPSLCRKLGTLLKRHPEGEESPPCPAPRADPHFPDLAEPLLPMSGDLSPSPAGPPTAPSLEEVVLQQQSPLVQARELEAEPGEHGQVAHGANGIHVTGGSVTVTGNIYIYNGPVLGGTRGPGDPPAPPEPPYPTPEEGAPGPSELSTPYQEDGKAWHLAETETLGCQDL
T3 sequence (P36941 31-435): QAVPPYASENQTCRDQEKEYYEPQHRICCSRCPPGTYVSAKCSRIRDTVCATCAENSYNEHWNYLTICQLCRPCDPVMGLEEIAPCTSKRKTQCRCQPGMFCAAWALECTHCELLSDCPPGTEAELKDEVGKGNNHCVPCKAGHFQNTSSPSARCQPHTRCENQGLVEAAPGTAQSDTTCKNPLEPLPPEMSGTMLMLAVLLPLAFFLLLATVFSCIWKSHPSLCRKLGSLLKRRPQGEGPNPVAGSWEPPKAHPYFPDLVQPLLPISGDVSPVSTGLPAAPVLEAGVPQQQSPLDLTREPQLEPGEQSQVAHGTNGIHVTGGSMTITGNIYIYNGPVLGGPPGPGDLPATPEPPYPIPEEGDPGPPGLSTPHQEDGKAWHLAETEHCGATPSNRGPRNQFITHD
T4 sequence (P36941 31-227 limits assumed): as the sequence (P36941 other isoform, or with tags, fused parts or gaps C02H C02H limits assumed) above, with V2A, G7A, R24Q, S45I, D163N, R181K, S184L, S186P counted along it

B1: Clone 3.3 (antibody, V domains shown)
VH: QVQLVQSGTEVKKPGASVKVSCKASGYTFTGYYMNWVRQAPGQGLEWVGWINPNSGDTNFAQKFQGRVTMTRDSSISTAYMELSRLRSDDTAVYYCARQFRGYSYGYGMDVWGKGTTVTVSS
VL: DIQMTQSPSSLSASVGDRVTITCRASQNIGSYLNWYQQKPGKAPKLLIYAASSLQSGVPSRFSGSGSGTDFTLTISSLQPEDFATYYCQQANSFPFTFGPGTKVDIK
notes: anti-FAP mAb (bivalent)
B1: in assay [1], the EC50 – broadly, the concentration that produces a half-maximal response – was 0.6 nM. The figures for the Kd in assay [2] and in assay [3] were 0.023 nM and 0.021 nM, respectively.

B2: Clone 1.2 (VHH, not shown: small tags and cut ends)
VHH: EVQLVESGGGLVQPGGSLRLSCAASGSSIFSFEIMAWYRQAPGKQRELVAVINKGGEANYPDSVEGRFTISRDNAKNTVYLQMNSLRPEDTAVYYCNADAVPHGSYWGQGTLVTVSS
notes: monovalent anti-LTBR VHH; also called 1.2 (parental clone for 1.5)
As to B2, the EC50 in assay [4] was found to be 1.6 nM. The koff (commonly a measure of how fast the partners let go of each other) in assay [5] stood at 0.00069 s⁻¹; in assay [6] it was 0.0026 s⁻¹.

B3: Clone 4.14 (antibody, V domains shown)
VH: QVQLKESGPGLVQPSQTLSLTCTVSGFSLTTYSVHWVRQHSGKSLEWMGRMWTDGDTSYNSAFTSRLSISRDTSKSQVFLKMNSLQTEDTGTYYCARGYWYFDFWGPGTMVTVSS
VL: DVQMTQSPSYLAASPGESVSIRCKASKSISNNLAWYQEKPGKANKLLIHSGSTLQSGTPSRFSGSGSGTDFTLTIRSLEFEDFAVYYCQQYNEYPYTFGAGTKLELK
For the molecule B3, in assay [7], the “4T1:CHO-FAP co-culture CCL5 read-out EC50” value is 0.28 nM; the “4T1:CHO-FAP co-culture CCL5 read-out EC50, 4.14 + cross-linking antibody” value was determined as 0.096 nM; the “4T1 monoculture CCL5 read-out EC50” value worked out at 0.47 nM; the “4T1 monoculture CCL5 read-out EC50, 4.14 + cross-linking antibody” value is 0.14 nM. Also, in assay [8], the “ICAM1 induction in PMLF EC50” value worked out at 0.063 nM and the “ICAM1 induction in PMLF EC50, 4.14 + cross-linking antibody” value was 0.021 nM.

B4: Clone 1.1 (VHH, not shown: small tags and cut ends)
VHH: EVQLVESGGGLVQPGGSLRLSCAASGRFFGIYDMYWYRQPPGKQRELVAISTSGGHTNYADSVKGRFTISRDNAKNTVYLQMNSLRPEDTAVYYCNIQRVDAPGMYWGQGTLVTV
notes: monovalent anti-LTBR VHH; also called 1.1 (parental clone for 1.7)
Consider B4, for which the EC50 in assay [4] was found to be 0.41 nM. Moreover, the koff stood at 0.0008 s⁻¹ in assay [5] and 0.0014 s⁻¹ in assay [6].

B5: Clone 3.4 (antibody, V domains shown)
VH: EVQLVESGGGLVKPGGSLRLSCVASGFTFSLAWMNWVRQAPGKGLEWVGHIKSRADGGSTDYAAPVKGRFTISRDDSKNTLYLHMNSLKTEDTAVYFCSRFYWNYVLDYWGQGTLVTVSS
VL: DIQMTQSPSSLSASVGDRVTITCRASQSINSYFNWYQQKPGKAPKLLIYAASGLQSGVPSRFSGSGSGTDFTLTISSLQPEDFATYYCQQSYSPPYTFGQGTNLEIK
notes: anti-FAP mAb (bivalent)
B5: the EC50 in assay [1] stood at 1.1 nM. Moreover, the Kd – broadly, the equilibrium constant for the complex coming apart – turned out to be 0.033 nM in assay [2] and 0.03 nM in assay [3].

B6: Clone 3.1 (antibody, V domains shown)
VH: QLQLQESGPGLVKPSETLSLTCTVSGGSISSSTYYWGWIRQPPGKGLEWIGSIFYSGNTYYNPSLKSRVTISVDTSKNQFSLRLNSVTAADTAVYYCAREIIEPRPGYFDYWGQGTLVTVSS
VL: DIQMTQSPSSLSASVGDRVTITCRASQSISKYLNWYQQKPGKAPKFLIYAASSLQSGVPSRFSGSGSGTDFTLTISSLQPEDFATYYCQQSNSIPRTFGQGTKVEIK
notes: anti-FAP mAb (bivalent)
In the case of B6, in assay [1], the EC50 is 1.7 nM. The Kd in assay [2] amounted to 0.04 nM; in assay [3], 0.051 nM.

B7: Clone 1.3 (VHH, not shown: small tags and cut ends)
VHH: EVQLVESGGGLVQPGGSLRLSCAASGRTFTNYRMAWFRQAPGKEREAVAAINWNGGGTYYADSVKGRFTISRDNAKNTVYLQMNSLRPEDTAVYYCAADSTGWGSYFDYWGQGTLVTVSS
notes: monovalent anti-LTBR VHH; also called 1.3 (parental clone for 1.8)
Molecule B7 had an EC50 in assay [4] of 1.2 nM. Also, the koff in assay [5] is 0.0038 s⁻¹; in assay [6], 0.0031 s⁻¹.

B8: Clone 3.2 (antibody, V domains shown)
VH: QVQLVQSGAEVKKPGASVKVSCKASGYTFTGYYMHWVRQAPGQGLEWMGWIYPNTGGTNYAQNFQGRVTMTRDTSISTAYMELSSLRSDDTAVYYCARDDYNKNLDYWGQGTLVTVSS
VL: DIQMTQSPSTLSASVGDRGTITCRASQSIGSWLAWYQQKPGKTPKLLIYKASSLESGVPSRFSGSGSGTEFTLTISSLQPDDFATYYCQQYNSYFRTFGQGTKVEIK
notes: anti-FAP mAb (bivalent)
On to B8, for which the EC50 in assay [1] was 0.7 nM. Further, the Kd came out at 0.047 nM in assay [2] and 0.028 nM in assay [3].

B9: Clone 1.4 (VHH, not shown: small tags and cut ends)
VHH: EVQLVESGGGLVQPGGSLRLSCKASGTTFSDRAFGWYRQAPGKQRELVATISTAGLTWYDVSVKGRFIISRDNPENTVYLQMNSLRPEDTAVYYCNTFRGNWGQGTLVTVSS
notes: monovalent anti-LTBR VHH; also called 1.4 (parental clone for 1.6)
Regarding B9, it took 2.3 nM to reach a half-maximal effect in assay [4] (EC50). Further, the koff in assay [5] turned out to be 0.0018 s⁻¹; in assay [6], 0.00097 s⁻¹.
